Experimental data taken from patent US20220153790A1 (TECHNISCHE UNIVERSIT T M NCHEN, published 2022).
Changes are numbered by the printed parent chain.

Tests used:
[1] = biological target: T1, fully glycosylated, monobiotinylated extracellular domain of human CD98hc produced in HEK 293E cells (human, UniProt P08195 111-529, N-linked glycosylation at Asn264, 280, 323 and 405 (UniProt P08195-2); single biotin on the N-terminal BAP); assay: not given
T1 construct: also called hCD98hcEDg; CD98hcEDg; not shown: N-terminal His6 tag and biotin acceptor peptide (BAP) from pDSG-BM-His6-BAP-hCD98hcEDg
T1 sequence: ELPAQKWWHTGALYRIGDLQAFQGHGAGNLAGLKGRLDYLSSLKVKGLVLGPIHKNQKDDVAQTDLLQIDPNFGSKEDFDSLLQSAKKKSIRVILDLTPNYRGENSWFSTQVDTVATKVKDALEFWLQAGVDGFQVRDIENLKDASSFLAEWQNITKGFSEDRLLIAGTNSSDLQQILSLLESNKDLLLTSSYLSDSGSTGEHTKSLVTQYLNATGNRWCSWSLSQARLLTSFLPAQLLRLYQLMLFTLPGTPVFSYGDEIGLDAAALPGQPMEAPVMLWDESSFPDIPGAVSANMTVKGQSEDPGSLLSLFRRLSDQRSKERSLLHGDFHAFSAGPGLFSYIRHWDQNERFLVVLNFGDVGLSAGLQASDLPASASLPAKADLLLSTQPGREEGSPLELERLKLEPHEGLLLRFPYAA

[2] = biological target: T2, unglycosylated, monobiotinylated extracellular domain of human CD98hc produced in E. coli (human, UniProt P08195 111-529, single biotin on the N-terminal biotin acceptor peptide (BAP)); assay: SPR, complex dissociation half-life
T2 construct: also called hCD98hcED; CD98hcED; not shown: N-terminal biotin acceptor peptide (BAP) from pASK-IBA5(+)-BAP-hCD98hcED
T2 sequence: T1 sequence
Experimental: (§1) Real time surface plasmon resonance (SPR) spectroscopy was performed on a BIAcore 2000 system (BIAcore, Uppsala, Sweden) at 25° C. using HBS-T (20 mM Hepes/NaOH pH 7.5, 150 mM NaCl, 0.005% v/v Tween20) as running buffer. The purified biotinylated m/hCD98hcED (3 μg/ml protein solution in HBS-T produced in HEK cells or E. coli) was immobilized (ARU-225) via streptavidin on a CAP sensorchip of the Biotin CAPture kit (GE Healthcare). SPR single cycle kinetic experiments were performed using five consecutive injections of a 1:2 dilution series of the purified lipocalin variant at a flow rate of 25 μl/min, with 288 s contact time and 3500 s dissociation time after the fifth injection. For multi cycle kinetic experiments, eight samples from a consecutive 1:2 dilution series of the purified lipocalin variant were measured. Rate constants of association and dissociation were calculated from reference-corrected sensorgrams by fitting to a global 1:1 Langmuir binding model using BIAevaluation software (BIAcore). The equilibrium dissociation constants (KD value) were calculated as the quotient koff/kₒₙ. To test competitive binding of the lipocalin variants P3D11, P3A12 and P1E4 to glycosylated hCD98hcED, 100 nM of P3D11 was first injected and followed by a subsequent injection of either 100 nM P3A12 or 100 nM P1E4. HBS-T injections served as negative control.

[3] = biological target: T1, fully glycosylated, monobiotinylated …; assay: SPR, complex dissociation half-life
Experimental: as §1

[4] = biological target: T1, fully glycosylated, monobiotinylated …; assay: SPR, biotinylated hCD98hcEDg captured on CAP chip
Experimental: as §1

[5] = biological target: T1, fully glycosylated, monobiotinylated …; assay: SPR, comparison of glycosylated and unglycosylated ectodomain
Experimental: as §1

[6] = biological target: T2, unglycosylated, monobiotinylated …; assay: SPR (BIAcore 2000), biotinylated hCD98hcED captured on CAP chip, multiple cycle kinetics
Experimental: as §1

[7] = biological target: T2, unglycosylated, monobiotinylated …; assay: flow cytometry of E. coli displaying the lipocalin; hCD98hcED detected by PE fluorescence, display level by Dy634 fluorescence
Experimental: (§2) The bacterial lawn was scraped from the plate(s), resuspended in 50 ml LB/Amp medium, followed by inoculation to an initial OD₅₅₀ of 0.15 at 37° C. Gene expression was induced at OD₅₅₀=0.5 with 10 ng/ml anhydrotetracycline (aTc) for 2.5 h. Approximately 2×10⁸ cells were sedimented and resuspended in PBS with biotinylated hCD98hcED at different concentrations (cycles 1 and 2: 100 nM; cycles 3 and 4: 10 nM; cycles 5 and 6: 1 nM) for 1 h at 4° C. After one washing step with PBS, the bacteria were incubated with 25 μg/ml streptavidin/phycoerythrin (PE) conjugate (Biolegend, San Diego, Calif.) and 3 μM dye-labeled Fab A3C5-DY634 [61] in PBS for 30 min followed by a last washing step in PBS. Bacteria were sorted on a FACSAria Ilu instrument (BD Bioscience, Heidelberg, Germany) using a 488 nm LASER diode with a 585/42 band pass filter or a 633 nm HeNe LASER in combination with a 660/20 band pass filter for excitation/detection of PE and DY634 fluorescence, respectively. Sorted bacteria were plated on LB/Amp agar, incubated at 37° C. for 12 h and then subjected to a new sorting cycle. After BSD cycle 6, single clone analysis was performed by cytofluorimetric analysis of individual colonies. Data were processed using FlowJo v10 software (FlowJo, Ashland, Oreg.). […]

[8] = biological target: T2, unglycosylated, monobiotinylated …; assay: SPR
Experimental: as §1

[9] = biological target: T2, unglycosylated, monobiotinylated …; assay: SPR (BIAcore 2000), biotinylated hCD98hcED captured on CAP chip, single cycle kinetics
Experimental: as §1

[10] = biological target: T1, fully glycosylated, monobiotinylated …; assay: flow cytometry, soluble hCD98hcEDg at 10-fold molar excess as competitor of cell binding
Experimental: Cells growing in suspension (Ramos, Raji and SU-DHL-4) were directly washed with PBS (w/o Ca²⁺ and Mg²⁺). For each measurement, 250,000 viable cells were resuspended in 250 μl FACS buffer (PBS+10% (v/v) FBS) containing 1 μM D11vs-PAS200-Cy5.5 (cf. Supplementary information) and incubated for 1 h at 4° C. Competition experiments were performed by adding a 10-fold molar concentration of either unlabeled D11vs-PAS200 or the soluble glycosylated hCD98hcED. After incubation, cells were washed three times in PBS and finally resuspended in 250 μl FACS buffer. Flow cytofluorometric experiments were performed on a FACSAria Ilu instrument using an excitation wavelength of 650 nm and an emission band-path filter of 780/60 nm.
As expected, no fluorescence staining for any of the tested cell lines was detected when using the Cy5.5-labeled PASylated wtLcn2.

[11] = biological target: T2, unglycosylated, monobiotinylated …; assay: single clone flow cytometry of E. coli displaying the lipocalin, 1 nM biotinylated hCD98hcED, mean PE fluorescence
Experimental: as §2

[12] = biological target: T2, unglycosylated, monobiotinylated …; assay: not given

B1: lipocalin variant P1E4 (designed binder)
chain: QDSTSDLIPAPPLSKVPLQQNFQDNQFHGKWYVVGIAGNSMLREDKDPFKMTATIYELKEDKSYNVTRVRFDDKKCLYRILTFVPGSQPGEFTLGNIKSRPGWTSWLVRVVSTNYNQHAMVFFKRVHQNRETFWITLYGRTKELTSELKENFIRFSKSLGLPENHIVFPVPIDQCIDG
notes: produced soluble in E. coli JM83, monomeric; also called Anticalin P1E4; not shown: C-terminal His6-tag (plasmid pNGAL118)
Kd [1]: ≤ 200 nM
T½ [2]: 0.0183 h
T1/2 [3]: < 0.0167 h
Kd [4]: 162 nM
koff [4]: 0.09 s⁻¹
kon [4]: 560000 M⁻¹ s⁻¹
fold decrease of binding by N-glycosylation (hCD98hcEDg against hCD98hcED) [5]: ~100 fold
Kd [6]: 4.5 nM
koff [6]: 0.011 s⁻¹
kon [6]: 2.5e+06 M⁻¹ s⁻¹

B2: wtLcn2 displayed on the E. coli cell surface (other)
chain: QDSTSDLIPAPPLSKVPLQQNFQDNQFQGKWYVVGLAGNAILREDKDPQKMYATIYELKEDKSYNVTSVLFRKKKCDYWIRTFVPGCQPGEFTLGNIKSYPGLTSYLVRVVSTNYNQHAMVFFKKVSQNREYFKITLYGRTKELTSELKENFIRFSKSLGLPENHIVFPVPIDQCIDG
notes: Control in the single clone FACS analysis; also called wild type Lcn2; not shown: The display carrier: the A3C5 tag and the engineered beta-domain of the autotransporter EspP (pNGAL146)
binding result [7]: no binding (tested: 100 nM hCD98hcED)

B3: lipocalin variant D11vs (designed binder)
chain: QDSTSDLIPAPPLSKVPLQQNFQDNQFHGKWYVVGRAGNTGLREDKDPGKMFATIYELKEDKSYNVTYVWSGQKKCMYSIVTFVPGSQPGEFTLGNIKSAPGRTSWLVRVVSTNYNQHAMVFFKSVTQNREGFAITLYGRTKELTSELKENFIRFSKSLGLPENHIVFPVPIDQCIDG
notes: P3D11 variant with Phe71Ser and Gly81Val; also called Anticalin D11vs; not shown: C-terminal His6-tag (plasmid pNGAL118) as for the other soluble lipocalin variants
fold increase of affinity against P3D11 [8]: ~3 fold
T½ [2]: 7.37 h
T1/2 [3]: 8.72 h
Kd [4]: 0.05 nM
koff [4]: 2.2e-05 s⁻¹
kon [4]: 460000 M⁻¹ s⁻¹
Kd [9]: 0.05 nM
koff [9]: 2.6e-05 s⁻¹
kon [9]: 450000 M⁻¹ s⁻¹

B4: D11vs-PAS200-Cy5.5 (designed binder)
chain: B3 chain
modifications: Sulfo-Cyanine5.5 coupled by maleimide chemistry to the engineered C-terminal Cys
notes: also called Cy5.5 labeled PASylated D11vs; Cy5.5-labeled D11vs-PAS200; not shown: C-terminal PAS200 polypeptide (200 Pro, Ala and Ser residues) with an engineered Cys at its end
binding result [10]: binds

B5: P3D11 variant D11.1 displayed on the E. coli cell surface (designed binder)
chain: B3 chain with R103Q, N151I
notes: One of the variants from error-prone PCR and bacterial surface display; not shown: The display carrier: the A3C5 tag and the engineered beta-domain of the autotransporter EspP (pNGAL146)
binding result [11]: binds

B6: SEQ ID NO 4 (designed binder)
chain: B3 chain with M120L
Kd [12]: ≤ 5 nM
